Measurements reported in the supplement of paper PMC9732359.
± gives the uncertainty stated by the source.

Assay: protein stability index of a GFP-peptide fusion (yeast GPS) (PSI 1-4); higher = more stable; sorted into four equal gates, so the index is relative within each strain
Conditions: doa10∆
In short: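 Mid-log yeast cultures in leucine-free medium, carrying a pooled plasmid library, were sorted into four equal gates by their GFP/Cherry fluorescence ratio. Each plasmid expressed Cherry along with GFP fused upstream of a tiled 17-residue yeast protein peptide. Plasmids recovered from each gate were PCR-amplified and Illumina-sequenced, with reads assigned to strains by barcodes. The protein stability index was obtained by summing each gate's read frequency weighted by its gate number.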
In the case of YKATATGPKQQEITTNL [SCL1], the protein stability index is reported as 3.17 ± 0.064. With YKLGKVKKVQLGKKGVP [RPS4A] the protein stability index was 2.85 ± 0.14. Sequence YKLNVRSNDPQSSLSKV [NUT2] has a protein stability index of 3.21 ± 0.12. YKLVNKNKENNTFTWNH [RPN4] showed a protein stability index of 2.65 ± 0.23. For YKTSKAAQDVWNRADNH [FAS1], the protein stability index was 2.96 ± 0.21. YLEENKSDSQYRFYEYI [MED1] gave a protein stability index of 3.04 ± 0.063. YLEESFTNLGIIVQYLT [RGR1] gave a protein stability index of 2.17 ± 0.2. With YLESLFAKQVDVQLERV [IRR1] the protein stability index was 2.49 ± 0.095. With YLKKREAGEVKDDGAFV [RPL10] the protein stability index was 3.16 ± 0.11. YLLSIWVKKFKWAGIKT [CYT1] showed a protein stability index of 2.38 ± 0.16. YLNSRIIPTTLEEQQQL [YML103C/NUP188] gave a protein stability index of 1.97 ± 0.039. Work on YLRVSFKNTRETAQAIN [RPL17A] yielded a protein stability index of 1.51 ± 0.03. YMEPFDLDLNEQVRKMY [NSL1] gave a protein stability index of 2.88 ± 0.1. In the case of YNDSATSGEAAALGMGL [RPN2], the protein stability index is reported as 2.32 ± 0.096. YNIDANVIDTQRKNGVT [ECM29] gave a protein stability index of 2.75 ± 0.25. In the case of YNSRPRSVRIPWYNNPV [PRP8], the protein stability index is reported as 2.34 ± 0.083. YPLPKFPTTSHESLVTT [MED8] gave a protein stability index of 1.81 ± 0.056. For YQDIEGGFEDVEEYTWS [RPB2], the protein stability index was 3.44 ± 0.14. For YQELGSLQSSSQTQLEN [MED2], the protein stability index was 2.96 ± 0.11. YQNRSTRSQFCLNTQRG [RRI1] gave a protein stability index of 2.8 ± 0.054. For YQRSKRVNNPNVSLIKI [RPL33A], the protein stability index was 3.1 ± 0.067. Sequence YRATSLDPSLRAPIYHS [YML031W/NDC1] has a protein stability index of 2.4 ± 0.068. For YRSCETQDESEIKDAET [SMC4], the protein stability index was 3.77 ± 0.25. In the case of YSFGGLLMRLEGNYRNL [RPB8], the protein stability index is reported as 1.8 ± 0.12. Sequence YSIFLENENILIKAKNF [SMC1] has a protein stability index of 1.21 ± 0.092. For YSKIPNILSNKPGQNNR [RRP6], the protein stability index was 2.16 ± 0.087. Work on YSLASVTLKGAKALESL [POP1] yielded a protein stability index of 2.78 ± 0.049. Work on YSLIRETNGYDPFSIYG [SNF5] yielded a protein stability index of 1.23 ± 0.056. With YSRISKLKQLLDESSEQ [YIL149C/MLP2] the protein stability index was 2.25 ± 0.077. Sequence YSRITLIIDDPSKGQSL [RPP1] has a protein stability index of 2.09 ± 0.056. YSRSVDKEWVFAALSDS [SSN2] showed a protein stability index of 1.44 ± 0.088. YSSILGNSFNKSSNDTI [YCG1] gave a protein stability index of 2.5 ± 0.048. Work on YVAIVVDPLKSLEDKIL [RRI1] yielded a protein stability index of 1.12 ± 0.069. YVDEQSKNELKKAFTSY [RPS16A] showed a protein stability index of 3.06 ± 0.059. In the case of YVLRNVLRIPEEYLDAN [MTW1], the protein stability index is reported as 2.67 ± 0.12. Work on YVNALADVLYKTAFKPH [QCR2] yielded a protein stability index of 3.04 ± 0.054. For YVRKHDPLNSNIFSEAV [PRP28], the protein stability index was 2.9 ± 0.11.

Same assay, conditions: pdr5∆
In the case of YKATATGPKQQEITTNL [SCL1], the protein stability index is reported as 3 ± 0.11. With YKIKGRNNSKSVLLKKL [SRP72] the protein stability index was 1.56 ± 0.11. YKLGKVKKVQLGKKGVP [RPS4A] showed a protein stability index of 2.98 ± 0.16. With YKLNVRSNDPQSSLSKV [NUT2] the protein stability index was 3.42 ± 0.12. Sequence YKLVNKNKENNTFTWNH [RPN4] has a protein stability index of 3.49 ± 0.27. For YKTSKAAQDVWNRADNH [FAS1], the protein stability index was 2.98 ± 0.17. In the case of YLEENKSDSQYRFYEYI [MED1], the protein stability index is reported as 3.06 ± 0.062. With YLEESFTNLGIIVQYLT [RGR1] the protein stability index was 2.49 ± 0.29. Work on YLESLFAKQVDVQLERV [IRR1] yielded a protein stability index of 2.19 ± 0.074. In the case of YLKKREAGEVKDDGAFV [RPL10], the protein stability index is reported as 2.8 ± 0.2. YLLSIWVKKFKWAGIKT [CYT1] showed a protein stability index of 1.57 ± 0.099. Work on YLNSRIIPTTLEEQQQL [YML103C/NUP188] yielded a protein stability index of 2.04 ± 0.042. Work on YLRVSFKNTRETAQAIN [RPL17A] yielded a protein stability index of 1.34 ± 0.042. Work on YMEPFDLDLNEQVRKMY [NSL1] yielded a protein stability index of 2.36 ± 0.079. YNDSATSGEAAALGMGL [RPN2] gave a protein stability index of 2.45 ± 0.11. With YNIDANVIDTQRKNGVT [ECM29] the protein stability index was 3.14 ± 0.092. For YNSRPRSVRIPWYNNPV [PRP8], the protein stability index was 2.22 ± 0.062. With YPLPKFPTTSHESLVTT [MED8] the protein stability index was 1.92 ± 0.06. YQDIEGGFEDVEEYTWS [RPB2] gave a protein stability index of 3.29 ± 0.11. With YQELGSLQSSSQTQLEN [MED2] the protein stability index was 3.3 ± 0.082. With YQNRSTRSQFCLNTQRG [RRI1] the protein stability index was 3.09 ± 0.063. YQRSKRVNNPNVSLIKI [RPL33A] showed a protein stability index of 3.15 ± 0.065. For YRATSLDPSLRAPIYHS [YML031W/NDC1], the protein stability index was 2.68 ± 0.055. YSFGGLLMRLEGNYRNL [RPB8] gave a protein stability index of 2.55 ± 0.12. YSIFLENENILIKAKNF [SMC1] showed a protein stability index of 1.22 ± 0.11. Work on YSKIPNILSNKPGQNNR [RRP6] yielded a protein stability index of 2.37 ± 0.074. YSLASVTLKGAKALESL [POP1] showed a protein stability index of 2.83 ± 0.052. Work on YSLIRETNGYDPFSIYG [SNF5] yielded a protein stability index of 1.31 ± 0.088. YSRISKLKQLLDESSEQ [YIL149C/MLP2] gave a protein stability index of 2.67 ± 0.088. In the case of YSRITLIIDDPSKGQSL [RPP1], the protein stability index is reported as 2.44 ± 0.063. For YSRSVDKEWVFAALSDS [SSN2], the protein stability index was 1.25 ± 0.06. For YSSILGNSFNKSSNDTI [YCG1], the protein stability index was 2.77 ± 0.042. For YVAIVVDPLKSLEDKIL [RRI1], the protein stability index was 1.38 ± 0.07. For YVDEQSKNELKKAFTSY [RPS16A], the protein stability index was 3.21 ± 0.044. YVLRNVLRIPEEYLDAN [MTW1] showed a protein stability index of 2.33 ± 0.15. Work on YVNALADVLYKTAFKPH [QCR2] yielded a protein stability index of 3.06 ± 0.048.
